The results in this text go back to patent US20250051463A1 (AstraZeneca / MedImmune, published 2025).

The target of experiment [1] is T1, human CD123 (IL3Rα) on cells (human, UniProt P26951 19-378).
T1 construct: whole, on cells; also called human IL3Rα expressed on 293 cells; AD293hIL3Rα
Kind of experiment: flow cytometry on EOL-1 cells, geometric mean. As for the experimental part:
On the day of plating, cells were spun down at 1500 rpm for 3 minutes, counted, and resuspended to a final concentration of 1×10⁶ cells/ml. […] Plates were incubated at 4° C. for 30 minutes. Following incubation plates were washed 3 times by spinning down at 1500 rpm for 3 minutes, flicked and 100 μl of FACS buffer were added. […] Flow data was analyzed in FlowJo software.
Target sequence in this assay (P26951 19-378): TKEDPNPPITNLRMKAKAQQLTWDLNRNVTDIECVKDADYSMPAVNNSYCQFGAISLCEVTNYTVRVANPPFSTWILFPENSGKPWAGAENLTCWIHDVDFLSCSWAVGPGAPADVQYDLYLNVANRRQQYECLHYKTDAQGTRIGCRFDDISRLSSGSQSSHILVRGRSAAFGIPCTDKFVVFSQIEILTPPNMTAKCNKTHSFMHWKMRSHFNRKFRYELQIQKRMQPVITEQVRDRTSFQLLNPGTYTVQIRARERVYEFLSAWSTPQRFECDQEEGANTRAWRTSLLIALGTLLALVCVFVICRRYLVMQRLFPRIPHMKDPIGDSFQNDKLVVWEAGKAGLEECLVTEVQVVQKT
(A flow cytometer gives signals particle by particle.)

Another experiment concerns the target T2, human IL-5Rα (human, UniProt Q01344 21-342, limits assumed).
T2 construct: Soluble analyte in the Octet assay; construct not described; also called hIL5-Rα; human IL-5Ra sample
T2 sequence (looked up): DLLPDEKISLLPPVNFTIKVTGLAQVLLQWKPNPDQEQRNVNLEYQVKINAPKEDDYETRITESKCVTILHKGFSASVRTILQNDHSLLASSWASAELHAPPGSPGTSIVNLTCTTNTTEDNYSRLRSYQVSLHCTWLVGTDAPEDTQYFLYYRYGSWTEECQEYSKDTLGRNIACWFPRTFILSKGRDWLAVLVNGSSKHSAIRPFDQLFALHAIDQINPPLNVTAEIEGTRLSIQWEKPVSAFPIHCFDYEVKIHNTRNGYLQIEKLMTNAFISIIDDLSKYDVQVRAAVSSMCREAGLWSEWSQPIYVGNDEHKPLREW
The experiment is described as follows: biolayer interferometry, HT12-GL on the sensor, Sample ID: hIL5Ra-his in solution. As for the experimental part:
(§1) Biolayer interferometry binding experiments were performed using an Octet RED384 instrument, with all measurements made at 30° C. AHC biosensor probes were soaked in kinetics buffer (PBS pH 7.2+0.02% Tween-20, 0.1% BSA, 0.05% sodium azide) for 10 minutes, followed by baseline signal measurement in kinetics buffer for 60 seconds. […] For binding to hIL3-Rα, the antibody-loaded biosensor tips were dipped in binding buffer for 60 sec (baseline), followed by immersion in a solution containing dilutions of hIL3-Rα (10-0.16 μg/mL) for 300 sec (association), and subsequent immersion in kinetics buffer for 400 sec (dissociation). For binding to hIL5-Rα and GM-CSFRa, all steps were the same except the concentration of antigen was increased (50-1.56 μg/mL) and the dissociation step was decreased to 300 sec. The signal from a buffer only reference sample was subtracted, and all curves were fit with a 1:1 binding model to determine KD values.

Experiment [2] concerns the target T3, mouse IL3Rα expressed on 293 cells (mouse, UniProt P26952 17-396).
T3 construct: whole, on cells; also called mouse CD123
T3 sequence (looked up): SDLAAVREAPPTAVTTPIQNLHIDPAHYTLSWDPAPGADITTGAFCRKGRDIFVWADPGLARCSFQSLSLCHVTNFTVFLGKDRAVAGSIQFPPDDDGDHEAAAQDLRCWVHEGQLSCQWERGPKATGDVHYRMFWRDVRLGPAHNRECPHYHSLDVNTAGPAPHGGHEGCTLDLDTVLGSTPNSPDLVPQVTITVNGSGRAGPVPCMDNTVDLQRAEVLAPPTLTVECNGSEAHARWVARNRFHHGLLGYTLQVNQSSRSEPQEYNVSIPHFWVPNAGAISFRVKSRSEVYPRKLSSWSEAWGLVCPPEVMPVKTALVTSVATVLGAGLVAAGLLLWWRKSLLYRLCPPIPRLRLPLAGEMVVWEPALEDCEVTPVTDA
The experiment is described as follows: flow cytometry with Alexa 647 labelled antibody on Ad293 cells expressing mouse IL3Ra, geometric mean. On the procedure:
(§2) AD293 cells were maintained in DMEM (Dulbecco's Modified Eagle Medium) containing 10% heat-inactivated fetal bovine serum (FBS) and were cultured in a humidified atmosphere of 5% CO2 and at a temperature of 37° C. On the day of plating, cells were spun down at 1500 rpm for 3 minutes, counted, and resuspended to a final concentration of 0.3×10⁶ cells/ml. Two hundred μl of cells were plated to wells of 96 well microtiter plate. Plates were spun down at 1500 rpm for 3 minutes and flicked to remove media. One hundred μl of FACs buffer (PBS [Phosphate Buffer Saline]+2% FBS) was added to the wells. Plates were then spun again as above followed by addition of primary antibody in 100 μl of FACS buffer. […] Antibody concentration started at 12 μg/ml followed by six 1:3 dilutions (no antibody control was also run). Plates were incubated at 4° C. for 30 minutes. Following incubation plates were washed 3 times by spinning down at 1500 rpm for 3 minutes, flicked and 100 μl of FACS buffer were added. Following a final wash, 100 μl of FACS buffer containing live/dead DAPI (diamidino-2-phenylindole) stain was added to the plates. […] Flow data was analyzed in FlowJo software.

In experiment [3] the target is T4, cynomolgus IL3Rα (CD123), sample in solution for biolayer interferometry (cynomolgus).
T4 construct: Soluble analyte in the Octet assay; construct not described; also called cynomolgus CD123 sample
Kind of experiment: kinetic binding curves, antibody on the sensor, cyIL3Ra in solution; the sheet prints Temperature: 25 C.

Experiment [4] concerns the target T1, human CD123 (IL3Rα) on cells. The experiment is described as follows: flow cytometry with Alexa 647 labelled antibody on Ad293 cells expressing human IL3Ra, geometric mean. On the procedure:
as §2

The next experiment concerns the target T5, GM-CSFRα (Homo sapiens (Human), UniProt P15509 23-320).
T5 construct: also called GM-CSFRa; GM-CSFRa sample; not shown: His tag
T5 sequence: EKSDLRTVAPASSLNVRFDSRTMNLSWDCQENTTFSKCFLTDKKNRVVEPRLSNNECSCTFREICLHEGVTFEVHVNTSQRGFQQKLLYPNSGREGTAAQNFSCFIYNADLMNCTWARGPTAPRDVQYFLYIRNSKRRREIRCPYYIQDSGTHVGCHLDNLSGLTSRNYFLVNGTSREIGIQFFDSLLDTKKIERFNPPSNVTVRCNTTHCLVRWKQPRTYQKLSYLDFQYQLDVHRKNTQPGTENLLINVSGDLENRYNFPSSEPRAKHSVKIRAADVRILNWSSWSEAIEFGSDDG
Kind of experiment: biolayer interferometry, HT12-GL on the sensor, GM-CSFRa-His in solution. As for the experimental part: as §1
On the technique in general: Biolayer interferometry detects binding as a change in optical thickness at a sensor tip.

B1: HT12-GL antibody (antibody, human IgG1, kappa, V domains shown)
VH: EVQLLESGGGLVQPGGSLRLSCAASGFTFNIYAMTWVRQAPGKGLEWVSGISAGGDSTYYADSVKGRFTISRDNSKNTLYLQMNSLRAEDTAVYYCAKDRGYYYGMDVWGQGTTVTVSS
VL: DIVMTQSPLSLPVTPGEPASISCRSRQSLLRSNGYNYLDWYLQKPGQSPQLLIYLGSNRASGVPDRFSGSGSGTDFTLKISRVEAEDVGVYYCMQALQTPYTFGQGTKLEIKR
notes: elsewhere unlabeled with a secondary antibody; also called HT12-GL mAb; CD123 mAb
Broadly, the EC50 (read off the curve) is the midpoint of the concentration-response curve. A low value points to an effect from little substance. As usually defined, the Kd is the equilibrium constant for the complex coming apart. For the molecule B1, the “EC50 (read off the curve)” value in experiment [1] is about 0.04 µg/mL; in experiment [4], about 1 µg/mL. For the same molecule, the binding result with human IL-5Rα was “no binding”; in experiment [2] it was “no binding (tested: log 1.1 ug/ml (about 12 ug/ml))”; with GM-CSFRα it was “no binding”. Besides, the Kd in experiment [3] is 0.656 nM.
